In publication PMC9127186, “Molecular Basis Underlying Hepatobiliary and Renal Excretion of Phenolic Acids of Salvia miltiorrhiza Roots (Danshen)” (Frontiers in Pharmacology, 2022):
One block for each molecule: values may come before it.

How the values were obtained:
rat Bcrp = molecular target: T1, rat Bcrp (Rattus norvegicus, UniProt Q80W57); experiment: Vesicular transport assay, inside-out membrane vesicles expressing rat Bcrp; details: positive substrate 20 μM, 10 min; rat Bcrp
T1 sequence (Q80W57 1-657): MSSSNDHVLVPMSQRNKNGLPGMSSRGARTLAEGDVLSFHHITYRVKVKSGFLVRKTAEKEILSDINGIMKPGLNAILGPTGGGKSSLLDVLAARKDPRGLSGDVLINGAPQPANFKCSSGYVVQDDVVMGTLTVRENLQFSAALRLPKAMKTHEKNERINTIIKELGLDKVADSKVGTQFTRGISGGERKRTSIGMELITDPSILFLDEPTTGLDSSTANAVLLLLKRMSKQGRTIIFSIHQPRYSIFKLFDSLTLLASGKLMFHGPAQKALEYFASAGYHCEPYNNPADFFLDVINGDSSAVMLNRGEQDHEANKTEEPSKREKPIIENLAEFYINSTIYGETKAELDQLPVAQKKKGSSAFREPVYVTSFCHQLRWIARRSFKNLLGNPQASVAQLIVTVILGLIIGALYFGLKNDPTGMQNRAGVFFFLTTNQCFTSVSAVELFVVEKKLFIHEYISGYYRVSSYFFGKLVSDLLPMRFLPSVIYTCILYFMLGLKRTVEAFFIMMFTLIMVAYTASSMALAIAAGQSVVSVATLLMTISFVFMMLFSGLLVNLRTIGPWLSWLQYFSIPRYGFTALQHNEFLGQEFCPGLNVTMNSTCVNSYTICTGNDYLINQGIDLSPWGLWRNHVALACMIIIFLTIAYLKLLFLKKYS
Description: (§1) Inside-out membrane vesicles (5 mg protein/mL), prepared from insect cells expressing human multidrug resistance-associated protein (MRP) 2, MRP3, MRP4, breast cancer resistance protein (BCRP), bile salt export pump (BSEP), and multidrug resistance protein (MDR) one and rat Mrp2, Mrp4, Bcrp, and Bsep, and vesicles (5 mg protein/mL; prepared from the insect cells expressing no ABC transporter; serving as negative control) were obtained from Genomembrane (Kanazawa, Japan).
(§2) The test Danshen compounds at 100 µM final concentration were separately incubated with the membrane vesicles for 10 min. Buffer C (50 mM MOPS-tris, 70 mM KCl, 7.5 mM MgCl2, pH 7.0) was used for preincubation and incubation, while buffer D (40 mM MOPS-tris, 70 mM KCl, pH 7.0) was used for vesicle washing. The transport rate (pmol/mg protein/min) of the test Danshen compound was calculated using Equation (2): Transport=(CV×VV)/T/WV (2) where C V, V V, T, and W V represent concentration of the compound in vesicular lysates supernatant (μM), volume of the lysates (μL), incubation time (10 min), and amount of vesicle protein amount per well (0.05 mg), respectively. Differential transport of the test Danshen compound between ATP-containing vesicles and AMP-containing vesicles was defined as net transport ratio (TransportATP/TransportAMP ratio). […] All the incubation samples were analyzed by liquid chromatography/mass spectrometry.

human BCRP = molecular target: T2, human BCRP (Homo sapiens, UniProt Q9UNQ0); experiment: Vesicular transport assay, inside-out membrane vesicles expressing human BCRP; details: positive substrate 20 μM, 10 min; human BCRP
T2 sequence (Q9UNQ0 1-655): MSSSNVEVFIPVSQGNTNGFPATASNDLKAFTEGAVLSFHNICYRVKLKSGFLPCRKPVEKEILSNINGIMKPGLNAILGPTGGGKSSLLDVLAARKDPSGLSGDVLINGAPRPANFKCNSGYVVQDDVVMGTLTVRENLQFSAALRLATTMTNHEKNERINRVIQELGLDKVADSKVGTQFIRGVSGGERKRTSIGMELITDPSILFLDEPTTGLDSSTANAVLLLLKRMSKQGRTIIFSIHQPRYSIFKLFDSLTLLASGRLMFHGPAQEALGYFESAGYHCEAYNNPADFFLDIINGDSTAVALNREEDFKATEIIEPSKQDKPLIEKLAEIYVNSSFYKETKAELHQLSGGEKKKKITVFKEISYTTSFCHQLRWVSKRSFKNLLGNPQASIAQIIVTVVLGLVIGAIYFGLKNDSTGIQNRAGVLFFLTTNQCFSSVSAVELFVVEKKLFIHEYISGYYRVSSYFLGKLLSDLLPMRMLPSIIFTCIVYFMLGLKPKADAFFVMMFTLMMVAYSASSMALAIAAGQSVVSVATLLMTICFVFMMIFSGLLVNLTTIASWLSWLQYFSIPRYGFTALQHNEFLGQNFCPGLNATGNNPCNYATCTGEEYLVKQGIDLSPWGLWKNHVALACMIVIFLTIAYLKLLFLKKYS
Description: as §1, §2

[1] = substrate: O=C(O)c1ccc(O)c(O)c1; experiment: cells, lysate or membranes named; details: 5 min incubation, concentrations in Table 1, 37.0 °C
[2] = substrate: O=C(O)Cc1c(/C=C/C(=O)OC(Cc2ccc(O)c(O)c2)C(=O)O)ccc(O)c1O; experiment: cells, lysate or membranes named; details: 5 min incubation, concentrations in Table 1, 37.0 °C
[3] = substrate: O=C(/C=C/c1ccc(O)c(O)c1)O[C@H](Cc1ccc(O)c(O)c1)C(=O)O; experiment: cells, lysate or membranes named; details: 5 min incubation, concentrations in Table 1, 37.0 °C
[4] = other: rat hepatic sinusoidal uptake Oat2 (also renal apical)
[5] = other: human renal basolateral uptake OAT1
[6] = other: human hepatic sinusoidal uptake OAT2 (also renal basolateral)
[7] = other: rat renal basolateral uptake Oat1
[8] = other: rat renal basolateral uptake Oat3

TransportATP/TransportAMP ratio, positive substrate (rat Bcrp): 20.5 ± 3.2 (MTX) | TransportATP/TransportAMP ratio, positive substrate (human BCRP): 4.45 ± 0.67 (MTX)
Molecule: CN(Cc1cnc2nc(N)nc(N)c2n1)c1ccc(C(=O)N[C@@H](CCC(=O)O)C(=O)O)cc1 [MTX, methotrexate, reference compound]

B1: rat Oat2 (Rattus norvegicus) (protein)
chain: MGFEDLLDKVGGFGPFQLRNLVLMALPRMLLPMHFLLPVFMAAVPAHHCALPGAPANLSHQDLWLEAHLPRETDGSFSSCLRFAYPQTVPNVTLGTEVSNSGEPEGEPLTVPCSQGWEYDRSEFSSTIATEWDLVCQQRGLNKITSTCFFIGVLVGAVVYGYLSDRFGRRRLLLVAYVSSLVLGLMSAASINYIMFVVTRTLTGSALAGFTIIVLPLELEWLDVEHRTVAGVISTVFWSGGVLLLALVGYLIRSWRWLLLAATLPCVPGIISIWWVPESARWLLTQGRVEEAKKYLLSCAKLNGRPVGEGSLSQEALNNVVTMERALQRPSYLDLFRTSQLRHISLCCMMVWFGVNFSYYGLTLDVSGLGLNVYQTQLLFGAVELPSKIMVYFLVRRLGRRLTEAGMLLGAALTFGTSLLVSLETKSWITALVVVGKAFSEAAFTTAYLFTSELYPTVLRQTGLGLTALMGRLGASLAPLAALLDGVWLLLPKVAYGGIALVAACTALLLPETKKAQLPETIQDVERKSTQEEDV
Vmax [1, 4]: 0.00118 ± 1.9e-05 µmol/min/mg | Vmax [2, 4]: 0.000164 µmol/min/mg | Vmax/Km [2, 4]: 2.73 µL/min/mg | Vmax [3, 4]: 0.00062 µmol/min/mg | Vmax/Km [3, 4]: 5.2 µL/min/mg

B2: human OAT1 (Homo sapiens) (protein)
chain: MAFNDLLQQVGGVGRFQQIQVTLVVLPLLLMASHNTLQNFTAAIPTHHCRPPADANLSKNGGLEVWLPRDRQGQPESCLRFTSPQWGLPFLNGTEANGTGATEPCTDGWIYDNSTFPSTIVTEWDLVCSHRALRQLAQSLYMVGVLLGAMVFGYLADRLGRRKVLILNYLQTAVSGTCAAFAPNFPIYCAFRLLSGMALAGISLNCMTLNVEWMPIHTRACVGTLIGYVYSLGQFLLAGVAYAVPHWRHLQLLVSAPFFAFFIYSWFFIESARWHSSSGRLDLTLRALQRVARINGKREEGAKLSMEVLRASLQKELTMGKGQASAMELLRCPTLRHLFLCLSMLWFATSFAYYGLVMDLQGFGVSIYLIQVIFGAVDLPAKLVGFLVINSLGRRPAQMAALLLAGICILLNGVIPQDQSIVRTSLAVLGKGCLAASFNCIFLYTGELYPTMIRQTGMGMGSTMARVGSIVSPLVSMTAELYPSMPLFIYGAVPVAASAVTVLLPETLGQPLPDTVQDLESRWAPTQKEAGIYPRKGKQTRQQQEHQKYMVPLQASAQEKNGL
Vmax [1, 5]: 0.000242 µmol/min/mg | Vmax [2, 5]: 3.76e-05 µmol/min/mg | Vmax/Km [2, 5]: 2.08 µL/min/mg | Vmax [3, 5]: 0.000181 µmol/min/mg | Vmax/Km [3, 5]: 2.55 µL/min/mg

B3: human OAT2 (Homo sapiens) (protein)
chain: MGFEELLEQVGGFGPFQLRNVALLALPRVLLPLHFLLPIFLAAVPAHRCALPGAPANFSHQDVWLEAHLPREPDGTLSSCLRFAYPQALPNTTLGEERQSRGELEDEPATVPCSQGWEYDHSEFSSTIATEWDLVCEQKGLNRAASTFFFAGVLVGAVAFGYLSDRFGRRRLLLVAYVSTLVLGLASAASVSYVMFAITRTLTGSALAGFTIIVMPLELEWLDVEHRTVAGVLSSTFWTGGVMLLALVGYLIRDWRWLLLAVTLPCAPGILSLWWVPESARWLLTQGHVKEAHRYLLHCARLNGRPVCEDSFSQEAVSKVAAGERVVRRPSYLDLFRTPRLRHISLCCVVVWFGVNFSYYGLSLDVSGLGLNVYQTQLLFGAVELPSKLLVYLSVRYAGRRLTQAGTLLGTALAFGTRLLVSSDMKSWSTVLAVMGKAFSEAAFTTAYLFTSELYPTVLRQTGMGLTALVGRLGGSLAPLAALLDGVWLSLPKLTYGGIALLAAGTALLLPETRQAQLPETIQDVERKSAPTSLQEEEMPMKQVQN
Vmax [1, 6]: 0.00382 ± 0.000177 µmol/min/mg | Vmax [2, 6]: 0.00269 ± 0.000114 µmol/min/mg | Vmax/Km [2, 6]: 24.3 µL/min/mg | Vmax [3, 6]: 0.000927 µmol/min/mg | Vmax/Km [3, 6]: 19.1 µL/min/mg

B4: rat Oat1 (Rattus norvegicus) (protein)
chain: MAFNDLLKQVGGVGRFQLIQVTMVVAPLLLMASHNTLQNFTAAIPPHHCRPPANANLSKDGGLEAWLPLDKQGQPESCLRFTSPQWGPPFYNGTEANGTRVTEPCIDGWVYDNSTFPSTIVTEWNLVCSHRAFRQLAQSLYMVGVLLGAMVFGYLADRLGRRKVLILNYLQTAVSGTCAAYAPNYTVYCVFRLLSGMSLASIAINCMTLNVEWMPIHTRAYVGTLIGYVYSLGQFLLAGIAYAVPHWRHLQLVVSVPFFIAFIYSWFFIESARWYSSSGRLDLTLRALQRVARINGKQEEGAKLSIEVLRTSLQKELTLSKGQASAMELLRCPTLRHLFLCLSMLWFATSFAYYGLVMDLQGFGVSMYLIQVIFGAVDLPAKFVCFLVINSMGRRPAQMASLLLAGICILVNGIIPKSHTIIRTSLAVLGKGCLASSFNCIFLYTGELYPTVIRQTGLGMGSTMARVGSIVSPLVSMTAEFYPSMPLFIFGAVPVVASAVTALLPETLGQPLPDTVQDLKSRSRGKQNQQQQEQQKQMMPLQASTQEKNGL
Vmax [1, 7]: 0.000446 µmol/min/mg | Vmax [2, 7]: 0.000115 µmol/min/mg | Vmax/Km [2, 7]: 4.72 µL/min/mg | Vmax [3, 7]: 0.000206 µmol/min/mg | Vmax/Km [3, 7]: 3.47 µL/min/mg

B5: rat Oat3 (Rattus norvegicus) (protein)
chain: MTFSEILDRVGSMGPFQYLHVTLLALPVLGIANHNLLQIFTATTPVHHCRPPPNASIGPWVLPLDPNGKPEKCLRFVHLPNASLPNDTQRATEPCLDGWIYNSTRDTIVIEWDLVCSSNKLKEMAQSIFMAGILVGGPVIGELSDRFGRKPILTWSYLMLAASGSGAAFSPSLPVYMIFRFLCGCSISGISLSTVILNVEWVPTSMRAISSTSIGYCYTIGQFILSGLAYAIPQWRWLQLTSSAPFFIFSLLSWWVPESIRWLVLSGKYSKALKTLQRVATFNGKKEEGKKLTIEELKFNLQKDITSAKVKYGLSDLFRVSILRRVTFCLSLAWFSTGFAYYSLAMGVEEFGVNIYILQIIFGGVDIPAKFITILSLSYLGRRITQSFLLLLAGGAILALIFVPSEMQLLRTALAVFGKGCLSGSFSCLFLYTSELYPTVLRQTGMGISNVWARVGSMIAPLVKITGELQPFIPNVIFGTTALLGGSAAFFLLETLNRPLPETIEDIQNWHKQVQKTKQESEAEKASQIIPLKTGG
Vmax [1, 8]: 6.68e-05 µmol/min/mg | Vmax [3, 8]: 3.58e-06 µmol/min/mg | Vmax/Km [3, 8]: 0.15 µL/min/mg
